Consider 11 molecules from US20190177415A1 (PIERRE FABRE MEDICAMENT, published 2019).

In test [1] the target is T1, C10orf54 (antigen of the KD values in Table 42) (human, UniProt Q9H7M9 33-311, limits assumed).
T1 sequence: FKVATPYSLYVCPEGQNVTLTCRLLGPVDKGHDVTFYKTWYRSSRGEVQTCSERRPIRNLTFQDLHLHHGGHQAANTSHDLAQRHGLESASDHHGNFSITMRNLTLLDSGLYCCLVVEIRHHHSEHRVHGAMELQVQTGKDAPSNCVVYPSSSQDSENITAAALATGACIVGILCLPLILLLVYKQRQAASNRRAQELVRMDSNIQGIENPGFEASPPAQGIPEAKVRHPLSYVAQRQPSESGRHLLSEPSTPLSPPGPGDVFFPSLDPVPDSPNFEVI
Kind of test: method and antigen form not stated.

Test [2] addresses T2, full length cynomolgus monkey C10orf54 (construct CC4) (cynomolgus monkey, UniProt Q9H7M9 33-311 (human entry)).
T2 construct: also called C10orf54 Construct 4
T2 chain: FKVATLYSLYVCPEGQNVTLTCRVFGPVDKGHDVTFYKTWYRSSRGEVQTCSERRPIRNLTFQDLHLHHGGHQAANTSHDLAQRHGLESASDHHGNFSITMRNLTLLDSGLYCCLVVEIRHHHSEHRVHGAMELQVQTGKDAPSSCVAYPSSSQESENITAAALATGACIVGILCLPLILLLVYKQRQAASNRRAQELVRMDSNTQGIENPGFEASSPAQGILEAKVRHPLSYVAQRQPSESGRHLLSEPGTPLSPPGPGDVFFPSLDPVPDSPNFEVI
Nature of the test: flow cytometry, transfected 293t cells, 2 ug/ml; stain = MFI >=20-fold over isotype control. On the procedure:
(§1) To investigate epitope diversity of the anti-human C10orf54 antibodies, 293t cells were transfected with 1 of 10 different C10orf54 expression constructs that co-express a fluorescent marker. Two days after transfection, cells were stripped from the tissue culture plate, stained with 2 μg/ml anti-human C10orf54 antibody , washed, stained with anti-mouse IgG-Fc Alexa Fluor 647 polyclonal antibody, washed, and stained with the viability dye 4′,6-Diamidino-2-Phenylindole, Dihydrochloride. Upon acquisition of 10,000 live events on a flow cytometer, live cells marked with the fluorescent marker were analyzed for the degree of staining by the anti-human C10orf54 antibody. When the median fluorescence intensity fold-change relative to an isotype control antibody was at least 20-fold, the antibody was considered to stain the C10orf54 expression construct in question.
(In flow cytometry, cells or beads pass a laser one at a time.)

For test [3], the target named is T3, chimeric C10orf54: human IgV with mouse STALK (construct CC5) (human/mouse chimera).
T3 construct: also called C10orf54 Construct 5; hsIGVmmSTALK
T3 chain: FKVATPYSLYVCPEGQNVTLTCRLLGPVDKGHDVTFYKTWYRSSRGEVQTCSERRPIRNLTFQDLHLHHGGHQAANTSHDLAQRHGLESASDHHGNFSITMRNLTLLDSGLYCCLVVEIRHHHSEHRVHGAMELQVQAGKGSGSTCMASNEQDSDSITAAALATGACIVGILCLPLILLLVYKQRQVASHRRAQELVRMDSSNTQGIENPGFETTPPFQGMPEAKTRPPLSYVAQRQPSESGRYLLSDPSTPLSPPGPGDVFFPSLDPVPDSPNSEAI
The description is as above. On the procedure:
as §1

Test [4] addresses T4, chimeric C10orf54: first half of IgV mouse and remainder (including loop) human (construct CC8) (human/mouse chimera, UniProt Q9H7M9 33-311).
T4 construct: also called C10orf54 Construct 8; mmabChsC10
T4 chain: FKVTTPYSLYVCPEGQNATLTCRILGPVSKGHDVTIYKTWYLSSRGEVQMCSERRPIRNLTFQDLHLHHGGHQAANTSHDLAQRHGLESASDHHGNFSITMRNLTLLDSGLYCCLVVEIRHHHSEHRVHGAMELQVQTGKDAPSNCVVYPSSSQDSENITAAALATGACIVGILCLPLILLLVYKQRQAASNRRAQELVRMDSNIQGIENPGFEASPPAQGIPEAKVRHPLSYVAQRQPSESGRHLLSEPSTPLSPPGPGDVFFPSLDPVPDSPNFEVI
Described as above. The method, then:
as §1

The target of test [5] is T5, chimeric C10orf54: mouse with human loop (construct CC10) (human/mouse chimera, UniProt Q9D659 33-308 (mouse entry)).
T5 construct: also called C10orf54 Construct 10; mmC10hsLOOP
T5 chain: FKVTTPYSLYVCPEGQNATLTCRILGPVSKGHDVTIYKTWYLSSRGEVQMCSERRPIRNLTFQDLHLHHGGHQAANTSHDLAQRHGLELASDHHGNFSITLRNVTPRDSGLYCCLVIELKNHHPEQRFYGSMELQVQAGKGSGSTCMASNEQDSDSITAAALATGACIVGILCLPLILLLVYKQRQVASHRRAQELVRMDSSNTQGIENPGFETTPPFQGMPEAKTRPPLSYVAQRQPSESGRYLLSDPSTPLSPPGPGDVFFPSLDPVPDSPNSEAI
The description is as above. On the procedure:
as §1

B1: murine monoclonal antibody 53A (antibody, V domains shown)
VH: EVQLQQSGPELVKPGASVKMSCKASGYTFTSYFMHWVKQKPGQGLEWIGYIYPYNDGTKYNEKFKGKATLTSDKSSSTAYMELSSLTSEDSAVYYCARFDYDTLRYWGQGTTLTVSS
VL: DVVLTQTPLSLPVNIGDQASISCKSTKSLLNSDGFTYLDWYLQKPGQSPQLLIYLVSNRFSGVPDRFSGSGSGTDFTLKISRVEAEDLGVYYCFQSNYFPWTFGGGTKLEIK
notes: Mouse hybridoma antibody
B1: the dissociation constant Kd (in general, the free concentration of one partner at which half of the binding sites on the other are occupied at equilibrium, for simple one-to-one binding) in test [1] was 0.321 nM. The binding result in test [2], in test [3] and in test [4] was “binds” in each case.

B2: murine monoclonal antibody 259A (antibody, V domains shown)
VH: EVQLQQSGPELVKPGASVKMSCKASGYTFTSYFMHWVKQKPGQGLEWIGYIYPYNDGTKYNEKFKGKATLTSDKSSSTAYMDLSSLTSEDSAVYYCARFDYDTLRYWGQGTTLTVSS
VL: DVVLTQTPLSLPVNIGDQASISCKSTKSLLNSDGFTYLDWYLQKPGQSPQLLIYLISNRFSGVPDRFSGSGSGTDFTLKISRVEAEDLGVYYCFQSNYFPWTFGGGTKLEIK
notes: Mouse hybridoma antibody
Turning to B2, the Kd in test [1] was found to be 0.266 nM. Further, the binding result in test [2], in test [3] and in test [4] was “binds” each time.

B3: murine monoclonal antibody 215A (antibody, V domains shown)
VH: EVQLQQSGPELVKPGASMKISCKASGFSFTGYTMNWVKQSHGKNLEWIGLISPYNGGTSYNQKFKGKATLTVDKSSSTAYMELLSLTSEDSAVYYCARRAYGYAMDYWGQGTSVTVSS
VL: QIVLTQSPAIMSASPGEKVTMTCSASSSVSYMFWYQQKPGSSPRLLIYDTSNLASGVPLRFSGSGSGTSYSLTISRMEAEDAATYYCQQWSSYPFTFGSGTKLEIK
notes: Mouse hybridoma antibody
On to B3, for which, in test [1], binding was put at a Kd of 1.52 nM. Further, the binding result in test [2], in test [3] and in test [4] was “binds” in each case.

B4: murine monoclonal antibody 39A (antibody, V domains shown)
VH: QVQLQQSGAELMKPGASVKISCKATGYTFSSNWIEWVKQRPGHGLEWIGEILPGSGSTSYNEKFKGKATFTADTSSNTAYMQLSSLTSEDSAVYYCARWLLYYYAMDYWGQGTSVTVSS
VL: DVLMTQTPLSLPVSLGDPASISCRSSQSIVHNNGNTYLEWYLQKPGQSPKLLIYKVSNRFSGVPDRFSGSGSGTDFTLKISRVEAEDLGVYYCFQGSHVPYTFGGGTKLEIK
notes: Mouse hybridoma antibody
For the molecule B4, binding in test [1] was put at a Kd of 5.79 nM. The binding result in test [2], in test [3] and in test [4] was “binds” throughout.

B5: murine monoclonal antibody 76E1 (antibody, V domains shown)
VH: EVQLLQSGPELEKPGASVKISCKASGYSFTGYNMNWVKQSNGKSLEWIGNIDPYYDYTSYNLKFKDKATLTVDKSSSTAYMQLKSLTSEDSAVYYCATSTMITPFDYWGQGTTLTVSS
VL: DVLMTQTPLSLPVSLGDQASISCRSSQSIVHSNGNTYLEWYLQKPGQSPKLLIYKVSNRFSGVPDRFSGSGSGTDFTLKINRVEAEDLGVYYCFQGSHVPWTFGGGTKLEIK
notes: Mouse hybridoma antibody
In turn, B5 gave a Kd in test [1] of 10.1 nM. Also, the binding result in test [2], in test [3] and in test [4] was “binds” in each case.

B6: murine monoclonal antibody 124A (antibody, V domains shown)
VH: QVQLQQSGAELMKPGASVKISCKATGYTFSSNWIEWVKQRPGHGLEWMGEILPGSGSTSYNEKFKGKATFTADTSSNTAYMQLSSLTSEDSAVYYCARWLLYYYAMDFWGQGTSVTVSS
VL: DVLMTQTPLSLPVSLGDQASISCRSSQSIVHNNGNTYLEWYLQKPGQSPKLLIYKVSNRFSGVPDRFSGSGSGTDFTLKISRVEAEDLGVYYCFQGSHVPYTFGGGTKLEIK
notes: Mouse hybridoma antibody
B6 returned a Kd in test [1] of 3.61 nM. Further, the binding result in test [2], in test [3] and in test [4] was “binds” throughout.

B7: murine monoclonal antibody 5B (antibody, V domains shown)
VH: QVQLQQSGAELVRPGVSVKISCKGSGYTFTDYGMHWVKQSHAKSLEWIGIIDTYYGDATYNQKFKGKATMTVDKSSSTAYMELARLTSEDSAIYYCARRAGNAMDYWGQGTSVTVSS
VL: NIVMTQTPKFLLVSAGDRVTITCKASQSVSNDVAWYQQKPGQSPKLLIYYASNRYTGVPDRFTGSGYGTDFTFTISTVQAEDLAVYFCQQDYSSPRTFGGGTKLEIK
notes: Mouse hybridoma antibody
B7: the Kd in test [1] came to 0.974 nM. The binding result in test [2], in test [3], in test [4] and in test [5] was “binds” throughout.

B8: murine monoclonal antibody 146C (antibody, V domains shown)
VH: QVQLQQSGAELVRPGVSVKISCKGSGYTFTDYGMHWVKQSHAKSLEWIGLIDTYYGDATYNHKFKGKATMTVDKSSRTAYMELARLTSEDSAIYYCARRAGNAMDYWGQGTSVTASS
VL: NIAMTQTPKFLLVSAGDRVTITCKASQSVSNDIAWYQQKPGQSPRLLIYYASNRYTGVPDRFTGSGYGTDFTFTISTVQAEDLAVYFCQQDYSSPRTFGGGTKLEIK
notes: Mouse hybridoma antibody
With B8, the binding result in test [2], in test [3], in test [4] and in test [5] was “binds” each time.

B9: murine monoclonal antibody 97A (antibody, V domains shown)
VH: QVQLQQSGAELVRPGVSVKISCKGSGYTFTDYGMHWVKQSHAKSLEWIGVIDTYYGDASNNQKFKGKATMTVDKSSSTAYMELARLTSEDSAIYYCARRAGNAMDYWGQGTSVTVSS
VL: SIVMTQTPKFLLVSAGDRVAITCKASQSVSNDVAWYQQKPGQSPKLLIYYASNRYTGVPDRFTGSGYGTDFTFTISTVQAEDLAVYFCQQDYGSPRTFGGGTKLEIK
notes: Mouse hybridoma antibody
Consider B9, for which the Kd in test [1] came out at 1.99 nM.

B10: murine monoclonal antibody 46A (antibody, V domains shown)
VH: QVQLQQAGGELVRPGVSVKISCKGSGYTFTDYGMHWVKQSHAKSLEWIGIINTYYGDATYNQKFKGKATMTVDKSSSTAYMELARLTSEDSAIYYCARRAGTAMDYWGQGTSVTVSS
VL: SIVMTQTPKFLLVSAGDRVTITCKASQSVSNDVAWYQQKPGQSPKLLIYYASNRYTGVPDRFTGSGYGTDFTFTISTVQAEDLAVYFCQQDYGSPRTFGGGTKLEIK
notes: Mouse hybridoma antibody
As for B10, the equilibrium dissociation constant (Kd) in test [1] amounted to 1.88 nM. The binding result in test [2] and in test [4] was “binds” in each case.

B11: murine monoclonal antibody 128A (antibody, V domains shown)
VH: QVQLQQSGAELVRPGVSVKISCKGSGYTFTDYGMHWVKQSHAKSLEWIGLIDTYYGDATYNHKFKGKATMTVDKSSRTAYMELARLTSEDSAIYYCARRAGNAMDYWGQGTSVTASS
VL: NIAMTQTPKFLLVSAGDRVTITCKASQSVSNDIAWYQQKPGQSPRLLIYYASNRYTGVPDRFTGSGYGTDFTFTISTVQAEDLAVYFCQQDYSSPRTFGGGTKLEIK
notes: Mouse hybridoma antibody
With B11, binding in test [1] was put at a Kd of 0.635 nM. Further, the binding result in test [2], in test [3], in test [4] and in test [5] was “binds” each time.
